Assay [1] has as its target T1, recombinant human ROR1-ECD protein (human, UniProt Q01973 30-406).
T1 construct: also called human ROR1 extracellular domain
Briefly: BLI (Octet), 6 ROR1 antigen concentrations, 3 fold diluted from 500 nM. The method, then:
(§1) The ROR1/CD3 FIT-Ig proteins were assayed for and ranked by dissociation rate constant (koff, “off-rate”) using an Octet®RED96 biolayer interferometry (Pall FortéBio LLC). Anti-hIgG Fc Capture (AHC) Biosensors (Pall) were first exposed to antibody at a concentration of 100 nM for 30 seconds to capture antibody, then dipped into running buffer (1× pH 7.2 PBS, 0.05% Tween 20, 0.1% BSA) for 60 seconds to check baseline. Sensors with captured antibody were dipped into recombinant human ROR1 ECD protein at 10 ug/ml for 5 minutes to measure association, followed by dipped into running buffer for 1200 seconds to measure dissociation. The association and dissociation curves were fitted to a 1:1 Langmuir binding model using ForteBio Data Analysis software (Pall). The off-rate ratios were calculated by the off-rate of antibody to that of FIT1007-12B. Lower ratio indicates slower dissociation of the antibody in comparison with the parental chimeric antibody FIT1007-12B.
ROR1 binding affinity/kinetics of the humanized candidate FIT1007-12B-17 and its parental chimeric FIT-Ig FIT1007-12B were measured using the same method as described in Example 3. For each antibody, measurements were titrated by 6 antigen concentrations, i.e., 3 fold diluted from 500 nM. Binding kinetics of FIT1007-12B-18, MAT1007-12B-17 and MAT1007-12B-18 are similar to those of FIT1007-12B-17. These candidates share the same ROR1 binding Fab.

The target in assay [2] is T1, recombinant human ROR1-ECD protein. In words: BLI (Octet RED96), FIT-Ig captured on anti-hIgG Fc sensors, ROR1 ECD at 10 ug/ml; the reference itself. As to the method: as §1
A general note: In BLI a coated tip is dipped into the sample, and binding shifts an interference pattern.

For assay [3] the target is unchanged. In words: BLI (Octet RED96), antibody captured on anti-mouse IgG Fc sensors, ROR1-ECD in solution, 25 C, 1:1 fit. As to the method: Briefly, Anti-Mouse IgG Fc Capture (AMC) Biosensors were used to capture purified anti-ROR1 antibodies. Sensors were then dipped into solutions containing recombinant human ROR1-ECD protein to detect target protein binding to the captured antibodies. Kinetics constants were determined by processing and fitting data to a 1:1 binding model using Fortebio analysis software. Shown below in Table 2 are the results obtained for ROR1-mAb004 in comparison with two previously described anti-ROR1 monoclonal antibodies, ROR1-Tab1 is clone R12 as described in WO2014167022, and ROR1-Tab2 is clone D10 as described in WO2012097313.

Assay [4] has the same target. In words: competition ELISA: biotinylated ROR1-ECD pre-mixed with the row's antibody; competitor coated on the plate: ROR1-mAb004. As to the method:
(§2) The binding epitope of ROR1 antibodies were identified with a competition ELISA. Briefly, 96 well plates were coated with 1 ug/mL purified antibodies and incubated overnight at 4° C. After washing with PBS containing 0.05% Tween 20, plates were blocked with blocking buffer (PBS containing 0.05% Tween 20 and 2% BSA) at 37° C. for 2 hours. Biotinylated human ROR1-ECD protein pre-mixed with ROR1 antibody (sample) or irrelevant mouse IgG (baseline) was added into plate wells and incubated at 37° C. for 1 hour before being washed 3 times. Streptavidin-HRP (1:5000 dilution) was then added into each well and incubated at 37° C. for 1 hour before being washed another 3 times. Tetramethylbenzidine (TMB) chromogenic solution was added for color development for 5 minutes then the reaction was stopped with 1M HCl. Absorbance at 450 nm (OD₄₅₀) was measured on a microplate reader. The OD450baseline represents the level of human ROR1-ECD binding to ROR1 antibodies at absence of competition, while the difference between OD450baseline and OD450ₛₐₘₚₗₑ reflects the competition between the ROR1 antibody coated on plate and the antibody in solution. The inhibition percentage was calculated by following equation: […]

Assay [5] has the same target. Briefly: competition ELISA: biotinylated ROR1-ECD pre-mixed with the row's antibody; competitor coated on the plate: ROR1-Tab1. As to the method:
as §2
(In an ELISA, binding on a coated surface is turned into a signal by an enzyme label.)

The target is the same in assay [6]. In words: competition ELISA: biotinylated ROR1-ECD pre-mixed with the row's antibody; competitor coated on the plate: ROR1-Tab2. As to the method: as §2
Assay [7] shares this target. Briefly: ELISA, ROR1-ECD coated at 1 ug/mL. The method, then:
The binding specificity and potency of anti-ROR1 antibodies were characterized by protein ELISA and flow cytometry analysis of cell surface binding. Briefly, binding properties of the anti-ROR1 antibodies were measured with ELISA as follows: recombinant ROR1-ECD protein was coated at 1 μg/mL on 96-well plates at 4° C. overnight. Plates were washed once with washing buffer (PBS containing 0.05% Tween 20) and blocked with ELISA blocking buffer (1% BSA in PBS containing 0.05% Tween 20) at room temperature for 2 hours. Anti-ROR1 antibodies were then added and incubated at 37° C. for 1 hour. Plates were washed three times with washing buffer. HRP labeled anti-mouse IgG secondary antibody (Sigma, Cat. #A0168) was added and the plates were incubated at 37° C. for 30 minutes then washed 5 times in washing buffer. 100 μl of tetramethylbenzidine (TMB) chromogenic solution was added to each well. Following color development, the reaction was stopped with 1 Normal HCl and absorbance at 450 nm was measured on a Varioskan™ LUX microplate reader (ThermoFisher Scientific). Binding signals were plotted against antibody concentration with GraphPad Prism 6.0 software and EC50s were calculated accordingly.

Assay [8] has as its target T2, human ROR1 on cells (human, UniProt Q01973 30-937).
T2 construct: whole, on cells; the cell line is named under assay; also called CHO-ROR1; CHOK1-ROR1
In words: flow cytometry on RPMI-8226 myeloma cells. As to the method: (§3) Cell binding activity of anti-ROR1 antibodies were measured with human ROR1 transfected CHO cell line (CHO-ROR1) and ROR1-expressing myeloma cell line (RPMI8226). Briefly, 5×10⁵ cells were seeded into each well of a 96-well plate. Cells were centrifuged at 400 g for 5 minutes and supernatants were discarded. For each well, 100 μl of serially diluted antibodies were then added and mixed with the cells. After 40 minutes incubation at 4° C., plates were washed several times to remove excess antibodies. Secondary fluorochrome-conjugated goat anti-mouse IgG antibody was then added and incubated with cells at room temperature for 20 minutes. After another round of centrifugation and a washing step, cells were resuspended in FACS buffer for reading on a CytoFLEX Flow Cytometer (Beckman Coulter). Median Fluorescence Intensity (MFI) readouts were plotted against antibody concentration and analyzed with GraphPad Prism 6.0 software. The results shown in FIGS. 2A-B illustrate the binding activities of anti-ROR1 monoclonal antibodies ROR1-mAb004 and ROR1-Tab1 to ROR1 expressing cells. An irrelevant mIgG1 was used as negative control.
Background: A flow cytometer gives signals particle by particle.

Assay [9] has as its target T2, human ROR1 on cells. Briefly: flow cytometry on human ROR1 transfected CHO cells (CHOK1-ROR1). As to the method: as §3
In assay [10] the target is T2, human ROR1 on cells. Briefly: flow cytometry on NCI-H1975 cells, MFI. As to the method:
(§4) Briefly, 5×10⁵ cells were seeded into each well of a 96-well plate. Cells were centrifuged at 400 g for 5 minutes and supernatants were discarded. For each well, […] of serially diluted antibodies were then added and mixed with the cells. After 40 minutes of incubation at 4° C., plates were washed several times to remove excess antibodies. Secondary fluorochrome-conjugated goat anti-human IgG antibody was then added and incubated with cells at room temperature for 20 minutes. After another round of centrifugation and a washing step, cells were resuspended in FACS buffer for reading on a CytoFLEX Flow Cytometer (Beckman Coulter). Median Fluorescence Intensity (MFI) readouts were plotted against antibody concentration and analyzed with GraphPad Prism 6.0 software.

In assay [11] the target is T2, human ROR1 on cells. Briefly: flow cytometry on RPMI8226 cells, internalization assay, 4°C control (coincides with 37°C + PAO). As to the method:
The binding internalization of humanized anti-ROR1 antibodies were characterized with ROR1-expressing myeloma cell line RPMI8226 with a method similar to that described previously in Example 1.4. Briefly, cells were harvested and resuspended in FACS buffer at density of 3 million per mL. Diluted antibodies were added to the tubes and incubated for 30 min at 4° C. After the first incubation, cells were washed three times with cold PBS to remove unbound antibody. Then, the cells of each antibody treatment were split into three groups, 4° C., 37° C. and 37° C.+PAO, respectively. Cells in the 37° C. […] After another round of centrifugation and washing step, cells were resuspended in FACS buffer for reading on a CytoFLEX Flow Cytometer (Beckman Coulter). An irrelevant mouse IgG control (MFIbackground) was calculated and used for background calibration. The difference between the MFI readout of “control” and that of “internalization” (ΔMFI) reflects the internalization of ROR1 antibodies, and such difference in relative to calibrated MFI of “control” reflects percentage of antibody internalization, which is calculated as follows and is summarized below in Table 15. […] The calculated antibody internalization percentages of HuROR-mAb004-1 and FIT1007-12B-17 were consistent with the results shown in Example 1.4, Table 4.

Assay [12] concerns the target T2, human ROR1 on cells. In words: flow cytometry on RPMI-8226 cells, MFI. As to the method:
as §4

Assay [13] has as its target T2, human ROR1 on cells. In words: flow cytometry on A549 cells, MFI. The method, then: as §4
Assay [14] deals with T2, human ROR1 on cells. In words: flow cytometry on MDA-MB-231 cells, MFI. As to the method: as §4

Data on four molecules can be found in patent US20240010753A1 (EPIMAB BIOTHERAPEUTICS HK, published 2024).

T2 sequence (Q01973 30-937): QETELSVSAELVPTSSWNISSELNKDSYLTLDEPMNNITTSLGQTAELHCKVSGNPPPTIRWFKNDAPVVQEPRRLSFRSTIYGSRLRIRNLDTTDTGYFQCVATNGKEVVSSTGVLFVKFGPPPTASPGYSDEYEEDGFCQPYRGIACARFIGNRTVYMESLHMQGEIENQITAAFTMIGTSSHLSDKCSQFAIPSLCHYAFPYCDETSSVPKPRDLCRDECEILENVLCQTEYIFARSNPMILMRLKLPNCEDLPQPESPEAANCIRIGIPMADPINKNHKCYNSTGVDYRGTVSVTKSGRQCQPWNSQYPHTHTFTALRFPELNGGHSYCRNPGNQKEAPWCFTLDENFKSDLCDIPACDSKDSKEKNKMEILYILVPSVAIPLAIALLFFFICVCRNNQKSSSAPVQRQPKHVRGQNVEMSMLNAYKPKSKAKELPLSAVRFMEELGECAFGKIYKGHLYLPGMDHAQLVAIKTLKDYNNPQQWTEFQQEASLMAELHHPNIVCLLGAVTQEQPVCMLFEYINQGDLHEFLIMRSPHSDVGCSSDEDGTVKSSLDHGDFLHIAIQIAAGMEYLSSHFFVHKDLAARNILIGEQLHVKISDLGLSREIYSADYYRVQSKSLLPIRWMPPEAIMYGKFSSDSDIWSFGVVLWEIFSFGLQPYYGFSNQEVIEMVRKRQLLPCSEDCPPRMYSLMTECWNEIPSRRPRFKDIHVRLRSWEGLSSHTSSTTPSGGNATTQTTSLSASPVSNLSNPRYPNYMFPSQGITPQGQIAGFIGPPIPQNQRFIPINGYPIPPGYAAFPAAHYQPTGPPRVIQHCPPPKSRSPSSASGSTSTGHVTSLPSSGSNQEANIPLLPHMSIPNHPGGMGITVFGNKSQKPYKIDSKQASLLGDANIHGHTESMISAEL
T1 sequence (Q01973 30-406): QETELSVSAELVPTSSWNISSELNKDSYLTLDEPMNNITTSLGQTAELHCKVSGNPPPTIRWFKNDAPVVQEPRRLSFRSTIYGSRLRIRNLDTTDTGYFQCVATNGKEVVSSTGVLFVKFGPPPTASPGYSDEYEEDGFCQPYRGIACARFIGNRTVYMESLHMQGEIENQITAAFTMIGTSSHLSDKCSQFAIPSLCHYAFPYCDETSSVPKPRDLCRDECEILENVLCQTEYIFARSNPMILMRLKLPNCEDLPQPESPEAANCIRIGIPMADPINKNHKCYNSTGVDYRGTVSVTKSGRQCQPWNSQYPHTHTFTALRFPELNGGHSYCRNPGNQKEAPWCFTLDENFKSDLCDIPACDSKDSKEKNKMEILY

B1: FIT1007-12B (bispecific antibody, human IgG1, kappa, L234A L235A)
chain 1: not shown
chain 2: QVQLQQSGPELVKPGASVKISCKASGYAFSRSWMNWVKQRPEKGLEWIGRIYPGNGDIKYNGNFKGKATLTADKSSSTAYMQLSSLTSEDSAVYFCAHIYYDFYYALDYWGQGTSVTVSSASTKGPSVFPLAPSSKSTSGGTAALGCLVKDYFPEPVTVSWNSGALTSGVHTFPAVLQSSGLYSLSSVVTVPSSSLGTQTYICNVNHKPSNTKVDKKVEPKSC
chain 3: not shown
notes: also called parental chimeric FIT-Ig; chimeric antibody (FIT1007-12B)
Usually Kd stands for the equilibrium constant for the complex coming apart. By koff is commonly meant the first-order rate constant of dissociation. By kon is commonly meant a measure of how fast the partners come together. For B1, in assay [1], the equilibrium dissociation constant (Kd) came out at 5.67 nM, the koff was 0.00103 s⁻¹ and the kon is 182000 M⁻¹ s⁻¹. Also, the “Off-rate Ratio” value in assay [2] was 100%.

B2: ROR1-mAb004 (antibody, V domains shown)
VH: QVQLQQSGPELVKPGASVKISCKASGYAFSRSWMNWVKQRPEKGLEWIGRIYPGNGDIKYNGNFKGKATLTADKSSSTAYMQLSSLTSEDSAVYFCAHIYYDFYYALDYWGQGTSVTVSS
VL: DIQLTQSPSSLSASLGGKVTITCKASQDINKYITWYQHKPGKGPRLLIHYTSTLQPGIPSRFSGSGSGRDYSFSISNLEPEDIATYYCLQYDSLLWTFGGGTKLEIK
notes: Mouse hybridoma monoclonal antibody; captured and detected through mouse IgG Fc
For orientation: EC50 means the concentration needed to bring the measured effect to its halfway point. Regarding B2, the Kd in [3] came to 18.5 nM. Moreover, in [3], the koff was determined as 0.00171 s⁻¹. For the same molecule, the kon in assay [3] worked out at 92500 M⁻¹ s⁻¹. Further, the Inhibition % in assay [4] was 93%; in assay [5], -22%; in assay [6], 92%. The figures for the EC50 (in [7]; with human ROR1 on cells [8]; with human ROR1 on cells [9]) were 0.022 nM, 0.983 nM and 2.31 nM, respectively.

B3: ROR1-Tab1 (antibody, V domains shown)
VH: QEQLVESGGRLVTPGGSLTLSCKASGFDFSAYYMSWVRQAPGKGLEWIATIYPSSGKTYYATWVNGRFTISSDNAQNTVDLQMNSLTAADRATYFCARDSYADDGALFNIWGPGTLVTISS
VL: ELVLTQSPSVSAALGSPAKITCTLSSAHKTDTIDWYQQLQGEAPRYLMQVQSDGSYTKRPGVPDRFSGSSSGADRYLIIPSVQADDEADYYCGADYIGGYVFGGGTQLTVTG
notes: also called clone R12; R12 as described in WO2014167022
As to B3, the Kd in assay [3] amounted to 1.28 nM. Further, the koff in [3] was 0.00066 s⁻¹. The kon in assay [3] was determined as 517000 M⁻¹ s⁻¹. The Inhibition % in [4] is -54%; in assay [5], 95%; in assay [6], -84%. Further, the EC50 in assay [7] is 0.025 nM; with human ROR1 on cells [8], 0.128 nM; with human ROR1 on cells [9], 0.774 nM.

B4: HuROR1-mAb004-1 (antibody, V domains shown)
VH: EVQLVQSGAEVKKPGSSVKVSCKASGYTFSRSWMNWVRQAPGQGLEWMGRIYPGNADIKYNANFKGRVTITADKSTSTAYMELSSLRSEDTAVYYCAHIYYDFYYALDYWGQGTTVTVSS
VL: DIQMTQSPSSLSASVGDRVTITCKASQDINKYITWYQQKPGKAPKLLIYYTSTLQPGVPSRFSGSGSGTDYTFTISSLQPEDIATYYCLQYDSLLWTFGGGTKVEIK
notes: only the variable domains are tied to it; also called HuROR-mAb004-1; parental anti-ROR1 monoclonal IgG1 antibody
For orientation: EC50 (read off the curve) means the concentration giving half of the maximal effect. As for B4, the “EC50 (read off the curve)” value with human ROR1 on cells [10] was approximately 2 nM; with human ROR1 on cells [11], approximately 1 nM; with human ROR1 on cells [12] it was approximately 1 nM; with human ROR1 on cells [13], approximately 1 nM; with human ROR1 on cells [14] it was approximately 2 nM.
